Laboratory results: the supplement of paper PMC7877785
± gives the uncertainty stated by the source.

Experiment: self-splicing fitness, log relative to wild type (ln ratio); higher = more splicing; Tetrahymena group I intron in knt gene, E. coli kanamycin selection, DiMSum; sequences stand for … in CUCUCU…GGAGGGAAAAGUUAUCAGGCAUGCACCUGGUAGCUAGUCUUUAAACCAAUAGAUUGCAUCGGUUUAAAAGGCAAGACCGUCAAAUUGCGGGAAAGGGGUCAACAGCCGUUCAGUACCAAGUCUCAGGGGAAACUUUGAGAUGGCCUUGCAAAGGGUAUGGUAAUAAGCUGACGGACAUGGUCCUAACCACGCAGCCAAGUCCUAAGUCAACAGAUCUUCUGUUGAUAUGGAUGCAGUUCACAGACUAAAUGUCGGUCGGGGAAGAUGUAUUCUUCUCAUAAGAUAUAGUCGGACCUCUCCUUAAUGGGAGCUAGCGGAUGAAGUGAUGCAACACUGGAGCCGCUGGGAACUAAUUUGUAUGCGAAAGUAUAUUGAUUAGUUUUGGAGUACUCGUGGUCG
In short: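 DiMSum derived fitness as the error-weighted combination of fold changes across replicates, kanamycin versus no kanamycin, normalised to wild type. E. coli BL21(DE3) held the library, which randomised all eight P1ex-region intron nucleotides within the knt kanamycin-resistance gene on pET-22b(+). Six replicate transformations grew overnight at 37°C or 30°C on LB agar with or without 25 μg/mL kanamycin, also containing 100 μg/mL carbenicillin, 50 μM IPTG and 0.2% rhamnose, and pooled colonies were amplicon-sequenced on an Illumina HiSeq 2500.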

| Sequence | self-splicing fitness (ln) (30 °C) | self-splicing fitness (ln) (37 °C) |
| --- | --- | --- |
| AUUGAGCAAUAUUACGUGCA | -2.91 ± 0.15 | -1.85 ± 0.14 |
| AUUGAGCAAUAUUACGUGGA | -2.87 ± 0.26 | -1.61 ± 0.21 |
| AUUGAGCAAUAUUACGUUCA | -1.59 ± 0.17 | -0.11 ± 0.17 |
| AUUGAGCAAUAUUACGUUUC | – | -2.57 ± 0.48 |
| AUUUAGCAAUAUUACGAAAU | -2 ± 0.31 | -1.54 ± 0.27 |
| AUUUAGCAAUAUUACGAGAG | – | -2.7 ± 0.3 |
| AUUUAGCAAUAUUACGAUGU | -1.08 ± 0.096 | 0.369 ± 0.11 |
| AUUUAGCAAUAUUACGCCUA | -1.24 ± 0.2 | 0.0334 ± 0.19 |
| AUUUAGCAAUAUUACGCGAU | -3.22 ± 0.33 | -2.49 ± 0.48 |
| AUUUAGCAAUAUUACGCGCA | -0.312 ± 0.13 | -0.00399 ± 0.16 |
| AUUUAGCAAUAUUACGCGUU | -2.01 ± 0.2 | -1.3 ± 0.19 |
| AUUUAGCAAUAUUACGGCAA | -1.05 ± 0.16 | -0.726 ± 0.17 |
| AUUUAGCAAUAUUACGGCGU | -0.211 ± 0.11 | 0.269 ± 0.13 |
| AUUUAGCAAUAUUACGUAAU | -0.35 ± 0.082 | -0.32 ± 0.12 |
| AUUUAGCAAUAUUACGUCCC | -0.0323 ± 0.37 | -0.682 ± 0.42 |
| AUUUAGCAAUAUUACGUGGA | -3.25 ± 0.21 | -2.04 ± 0.16 |
| AUUUAGCAAUAUUACGUUGA | -1.32 ± 0.2 | -2.27 ± 0.26 |
| CAAAAGCAAUAUUACGAAAC | -4.17 ± 0.39 | -3.75 ± 0.33 |
| CAAAAGCAAUAUUACGAAUG | -1.18 ± 0.057 | -0.723 ± 0.076 |
| CAAAAGCAAUAUUACGAGAC | -3.62 ± 0.39 | -2.36 ± 0.21 |
| CAAAAGCAAUAUUACGAGCA | -2.5 ± 0.14 | -1.97 ± 0.14 |
| CAAAAGCAAUAUUACGAUUU | -1.18 ± 0.061 | -0.732 ± 0.075 |
| CAAAAGCAAUAUUACGCAAA | -2.48 ± 0.14 | -1.76 ± 0.17 |
| CAAAAGCAAUAUUACGCAUG | -3.93 ± 0.19 | -0.824 ± 0.15 |
| CAAAAGCAAUAUUACGCCCU | -2.13 ± 0.17 | -0.434 ± 0.17 |

| Sequence | self-splicing fitness (ln) (30 °C) | self-splicing fitness (ln) (37 °C) |
| --- | --- | --- |
| CAAAAGCAAUAUUACGCGAU | -4 ± 0.3 | -1.78 ± 0.23 |
| CAAAAGCAAUAUUACGCGUU | -3.91 ± 0.17 | -2.74 ± 0.13 |
| CAAAAGCAAUAUUACGCUGG | -2.88 ± 0.19 | -1.9 ± 0.17 |
| CAAAAGCAAUAUUACGGCUC | -1.56 ± 0.12 | 0.0316 ± 0.14 |
| CAAAAGCAAUAUUACGGGCA | -2.88 ± 0.16 | -1.99 ± 0.14 |
| CAAAAGCAAUAUUACGGGCU | -3.65 ± 0.23 | -2.57 ± 0.21 |
| CAAAAGCAAUAUUACGUAGC | -3.1 ± 0.13 | -2.61 ± 0.24 |
| CAAAAGCAAUAUUACGUAUG | -2.89 ± 0.098 | -2.22 ± 0.13 |
| CAAAAGCAAUAUUACGUCAA | -3.34 ± 0.11 | -2.86 ± 0.12 |
| CAAAAGCAAUAUUACGUCCA | -1.7 ± 0.18 | -2.05 ± 0.16 |
| CAAAAGCAAUAUUACGUCCC | -2.65 ± 0.26 | -2.26 ± 0.42 |
| CAAAAGCAAUAUUACGUCGU | -3.83 ± 0.12 | -1.54 ± 0.1 |
| CAAAAGCAAUAUUACGUGAU | -3.62 ± 0.11 | -2.41 ± 0.12 |
| CAAAAGCAAUAUUACGUGCA | -2.95 ± 0.12 | -1.96 ± 0.12 |
| CAAAAGCAAUAUUACGUGGA | -3.4 ± 0.14 | -2 ± 0.096 |
| CAAAAGCAAUAUUACGUGUG | -2.48 ± 0.055 | -1.09 ± 0.059 |
| CAAAAGCAAUAUUACGUUGA | -3.14 ± 0.14 | -2.32 ± 0.12 |
| CAACAGCAAUAUUACGACUG | -0.232 ± 0.052 | 0.0876 ± 0.072 |
| CAACAGCAAUAUUACGAUAU | -4 ± 0.15 | -2.2 ± 0.13 |
| CAACAGCAAUAUUACGAUGA | -1.53 ± 0.12 | -0.678 ± 0.089 |
| CAACAGCAAUAUUACGAUUU | -0.837 ± 0.067 | -0.69 ± 0.083 |
| CAACAGCAAUAUUACGCAAA | -3.57 ± 0.33 | -2.37 ± 0.14 |
| CAACAGCAAUAUUACGCAGC | -4.4 ± 0.25 | -2.75 ± 0.29 |
| CAACAGCAAUAUUACGCCAA | -2.36 ± 0.14 | -1.62 ± 0.14 |
| CAACAGCAAUAUUACGCCCA | -0.825 ± 0.097 | -1.04 ± 0.1 |

| Sequence | self-splicing fitness (ln) (30 °C) | self-splicing fitness (ln) (37 °C) |
| --- | --- | --- |
| CAACAGCAAUAUUACGCCGU | -4.14 ± 0.29 | -2.82 ± 0.38 |
| CAACAGCAAUAUUACGCGGU | -2.36 ± 0.12 | -2.88 ± 0.28 |
| CAACAGCAAUAUUACGCUUC | -3.83 ± 0.24 | -2.18 ± 0.2 |
| CAACAGCAAUAUUACGGACU | -2.52 ± 0.11 | -1.33 ± 0.14 |
| CAACAGCAAUAUUACGGAUC | -3.08 ± 0.12 | -1.89 ± 0.12 |
| CAACAGCAAUAUUACGGCCU | -3.63 ± 0.16 | -1.3 ± 0.12 |
| CAACAGCAAUAUUACGGCUU | -1.88 ± 0.082 | -0.875 ± 0.087 |
| CAACAGCAAUAUUACGGGCA | -2.61 ± 0.1 | -1.9 ± 0.12 |
| CAACAGCAAUAUUACGGGCU | -3.65 ± 0.13 | -2.66 ± 0.14 |
| CAACAGCAAUAUUACGUCAA | -3.49 ± 0.13 | -2.08 ± 0.1 |
| CAACAGCAAUAUUACGUCAC | -3.96 ± 0.24 | -2.26 ± 0.18 |
| CAACAGCAAUAUUACGUCCG | -0.0787 ± 0.06 | 0.513 ± 0.076 |
| CAACAGCAAUAUUACGUGGG | -3.25 ± 0.096 | -1.11 ± 0.075 |
| CAACAGCAAUAUUACGUGUG | -3.55 ± 0.14 | -2.32 ± 0.11 |
| CAACAGCAAUAUUACGUUAG | -2.13 ± 0.076 | -1.52 ± 0.089 |
| CAACAGCAAUAUUACGUUCU | -1.32 ± 0.073 | -0.92 ± 0.094 |
| CAACAGCAAUAUUACGUUGC | -4.78 ± 0.36 | -1.54 ± 0.14 |
| CAAGAGCAAUAUUACGAACG | -0.336 ± 0.063 | 0.335 ± 0.079 |
| CAAGAGCAAUAUUACGAGCA | -2.85 ± 0.28 | -2.63 ± 0.38 |
| CAAGAGCAAUAUUACGAGUG | -1.46 ± 0.089 | -1.23 ± 0.12 |
| CAAGAGCAAUAUUACGAUAU | -3.3 ± 0.29 | -2.7 ± 0.3 |
| CAAGAGCAAUAUUACGCAUU | -3.39 ± 0.27 | -2.51 ± 0.21 |
| CAAGAGCAAUAUUACGCCCG | -1.84 ± 0.2 | -1.03 ± 0.22 |
| CAAGAGCAAUAUUACGCCGU | -1.59 ± 0.47 | – |
| CAAGAGCAAUAUUACGCGCG | -1.47 ± 0.093 | -0.891 ± 0.13 |
